Results: US20240010722A1 (published 2024)

T1: murine MAdCAM on cells (mouse, UniProt Q61826 22-405)
T1 construct: whole, on cells; also called CHO cells over-expressing murine MAdCAM; MAdCAM-1 expressing structures of mouse mesenteric lymph node
T1 sequence (looked up): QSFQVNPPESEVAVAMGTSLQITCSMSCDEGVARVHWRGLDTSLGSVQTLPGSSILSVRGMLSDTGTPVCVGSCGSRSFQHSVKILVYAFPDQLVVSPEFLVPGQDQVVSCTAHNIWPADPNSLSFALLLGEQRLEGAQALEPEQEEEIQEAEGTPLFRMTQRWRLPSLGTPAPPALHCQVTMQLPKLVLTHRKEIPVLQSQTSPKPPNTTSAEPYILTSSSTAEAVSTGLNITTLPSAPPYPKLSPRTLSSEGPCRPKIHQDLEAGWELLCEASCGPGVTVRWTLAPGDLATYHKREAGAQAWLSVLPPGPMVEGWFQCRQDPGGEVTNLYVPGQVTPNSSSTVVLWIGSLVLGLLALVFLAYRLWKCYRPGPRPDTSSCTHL

T2: human MAdCAM (human, UniProt Q13477 19-317, limits assumed)
T2 construct: also called huMAdCAM; human MAdCAM-1
T2 sequence (looked up): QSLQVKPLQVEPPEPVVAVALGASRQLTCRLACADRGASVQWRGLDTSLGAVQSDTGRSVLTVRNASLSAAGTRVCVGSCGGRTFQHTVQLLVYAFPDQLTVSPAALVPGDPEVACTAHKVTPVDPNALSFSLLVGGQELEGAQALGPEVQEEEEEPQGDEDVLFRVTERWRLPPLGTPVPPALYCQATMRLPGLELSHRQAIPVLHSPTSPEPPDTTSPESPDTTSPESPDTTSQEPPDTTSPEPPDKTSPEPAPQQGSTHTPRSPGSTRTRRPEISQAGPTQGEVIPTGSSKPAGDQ

T3: human MAdCAM on CHO cells (human, UniProt Q13477 19-382)
T3 construct: whole, on cells; also called CHO cells over-expressing human MAdCAM
T3 sequence (looked up): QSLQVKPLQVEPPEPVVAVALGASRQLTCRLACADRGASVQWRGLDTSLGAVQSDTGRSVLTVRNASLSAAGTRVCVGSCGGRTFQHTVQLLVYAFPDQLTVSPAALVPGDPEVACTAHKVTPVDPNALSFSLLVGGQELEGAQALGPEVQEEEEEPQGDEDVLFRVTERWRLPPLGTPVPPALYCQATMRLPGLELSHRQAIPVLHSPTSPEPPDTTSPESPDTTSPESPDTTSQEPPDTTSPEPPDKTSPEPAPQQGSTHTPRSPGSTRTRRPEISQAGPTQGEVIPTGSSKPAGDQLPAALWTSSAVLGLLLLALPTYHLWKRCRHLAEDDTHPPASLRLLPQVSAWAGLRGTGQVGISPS


Key:
murine MAdCAM on cells [1] = target: T1, murine MAdCAM on cells; assay: confocal staining of mouse mesenteric lymph node sections, 1 and 10 nM
Description: Fresh frozen mesenteric lymph node replicates from a 12-week BALB/c mouse were sectioned at 5 um, fixed with acetone, blocked with blockaid buffer solution for ten minutes room temperature and incubated with 1 and 10 nM titrations of test articles overnight at 4-degree Celsius. Tissues were then stained with anti-mouse MAdCAM and anti-human IgG Fc for two hours room temperature, DAPI counterstained and mounted and imaged with confocal microscopy. Clones including optimized MAdCAM (PMAB58 and PMAB18) co-localized with MAdCAM-1 expressing structures similarly to the parental clones (PMAB1 and PMAB57).

Insulin = assay: polyreactivity ELISA on insulin coat, 100 nM
Chain of Insulin (P01308 25-54, chain 1 of 2): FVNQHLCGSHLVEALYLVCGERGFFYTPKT
Chain of Insulin (P01308 90-110, chain 2 of 2): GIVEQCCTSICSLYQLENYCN
Description: Non-specific DNA and Insulin binding is predictive of poor pharmacokinetics (PK). An immunosorbent plate was coated with dsDNA at a concentration of 1 μg/mL or Insulin at 5 μg/mL in PBS pH 7.4, 75 ul/well, and incubated overnight at 4° C. Wells were washed with PBS pH 7.4 containing 0.05% Tween-20 (wash buffer) three times, and then blocked with 200 ul/well 1% BSA in PBS pH 7.4 (block buffer) for two hours at room temperature. After three washes with wash buffer, TAs and controls Lenzilumab and Elotuzumab were diluted to 100 nM in PBS containing 1% BSA and 0.05% Tween-20 (assay buffer). The diluted material was added to the DNA/insulin coated plate at 75 ul/well for 1 hour at room temperature. After three washes with wash buffer, a donkey anti-human FcY HRP conjugated polyclonal antibody, diluted to 1:5000 in assay buffer, was added to the plate at 75 ul/well for 1 hr at room temperature. After three washes with wash buffer and three washes with wash buffer (with no tween-20), the assay was developed with TMB, and stopped with 1N HCL. OD 450 nm was measured. The experiment included appropriate controls for non-specific binding of test articles to the plate/block in the absence of DNA or insulin.

human MAdCAM = target: T2, human MAdCAM; assay: BLI (Octet), binder on anti-human Fc tips
murine MAdCAM on cells [2] = target: T1, murine MAdCAM on cells; assay: flow cytometry on CHO cells
Description: (§1) Parental CHO cells or CHO cells over-expressing human MAdCAM or murine MAdCAM were seeded onto wells of a 96 well plate (Corning) overnight. After washing 3 times with F12+10% FBS media, the plate was blocked for 1 hour with 5 uM whole human IgG. 10 nM parental MAdCAM-IL-2 M bi-specifics PRNT1 and PRNT2, or optimized variants MIAB12, MIAB13, MIAB25, MIAB26, MIAB37, MIAB204 and MIAB197 were captured for 1 hour. After washing 2 times with F12+10% FBS media, freshly-isolated human PBMCs were stimulated for 60 minutes with captured IL-2 MM bispecifics. Cells were then fixed for 10 minutes with BD Cytofix, permeabilized sequentially with BD Perm III, and BioLegend FOXP3 permeabilization buffer, blocked with human serum and stained for 30 minutes with antibodies against phospho-STAT5 A488, CD25 PE, FOXP3 AF647 and CD4 PerCP Cy5.5, CD3 BV421, CD56 BV785 and acquired on an Attune NXT with plate loader. […] Accordingly, PRNT1, PRNT2, MIAB1, MIAB12, MIAB13, MIAB25, MIAB26, MIAB37 MIAB204, and MIAB197 selectively activate Tregs.

[3] = target: T3, human MAdCAM on CHO cells; assay: flow cytometry on CHO cells
Description: as §1

Row | binding result (murine MAdCAM on cells [1]) | Insulin polyreactivity score (Insulin) | Kd (human MAdCAM) | koff (human MAdCAM) | kon (human MAdCAM) | binding result (human MAdCAM) | binding result (murine MAdCAM on cells [2]) | binding result [3] | Binder
1 | binds | – | – | – | – | – | – | – | PMAB1 (bispecific antibody, human IgG1, kappa, also called parental PMAB1) heavy: EVQLLESGGGLVQPGGSLRLSCAASGFTFSNSDMSWVRQAPGKGLEWVSGITISGGSTYYADSVKGRFTISRDNSKNTLYLQMNSLRAEDTAVYYCARGRGGSGWLDYWGQGTLVTVSSASTKGPSVFPLAPSSKSTSGGTAALGCLVKDYFPEPVTVSWNSGALTSGVHTFPAVLQSSGLYSLSSVVTVPSSSLGTQTYICNVNHKPSNTKVDKKVEPKSCDKTHTCPPCPAPEAAGAPSVFLFPPKPKDTLMISRTPEVTCVVVDVSHEDPEVKFNWYVDGVEVHNAKTKPREEQYNSTYRVVSVLTVLHQDWLNGKEYKCKVSNKALPAPIEKTISKAKGQPREPQVYTLPPSREEMTKNQVSLTCLVKGFYPSDIAVEWESNGQPENNYKTTPPVLDSDGSFFLYSKLTVDKSRWQQGNVFSCSVMHEALHNHYTQKSLSLSPGGGGGSGGGGSGGGGSEVQLLESGGGLVQPGGSLRLSCAASGFTFSDFWMHWVRQAPGKGLEWISYISGDSGYTNYADSVKGRFTISRDNSKNTLYLQMNSLRAEDTAVYYCARDRPYYYYMDVWGKGTTVTVSSGGGGSGGGGSGGGGSGGGGSDIQMTQSPSSLSASVGDRVTITCRASQSVSRSLAWYQQKPGKAPKLLIYAASSLQSGVPSRFSGSGSGTDFTLTISSLQPEDFATYYCQQYKSYPVTFGQGTKVEIK light: not shown
2 | – | 2.61 | 43.8 nM | 0.0197 s⁻¹ | 449000 M⁻¹ s⁻¹ | – | – | – | MIAB146 (antibody, V domains shown, tested with human Fc; also called MIAB146-001) VH: EVQLLESGGGLVQPGGSLRLSCAASGFTFSDFWMHWVRQAPGKGLEWISYISGDSGYTNYADSVKGRFTISRDNSKNTLYLQMNSLRAEDTAVYYCARDRPYYYYMDVWGKGTTVTVSS VL: DIQMTQSPSSLSASVGDRVTITCRASQSVSSSLAWYQQKPGKAPKLLIYAASSLQSGVPSRFSGSGSGTDFTLTISSLQPEDFATYYCQQYKSYPVTFGQGTKVEIK
3 | – | 2.46 | 8360 nM | 0.543 s⁻¹ | 64800 M⁻¹ s⁻¹ | – | – | – | MIAB153 (antibody, V domains shown, tested with human Fc) VH: EVQLLESGGGLVQPGGSLRLSCAASGFTFSDFWMHWVRQAPGKGLEWISYISGDSGYTNYADSVKGRFTISRDNSKNTLYLQMNSLRAEDTAVYYCARDRPYYYYMDVWGKGTTVTVSS VL: DIQMTQSPSSLSASVGDRVTITCRASQSVSSSLNWYQQKPGKAPKLLIYAASSLQSGVPSRFSGSGSGTDFTLTISSLQPEDFATYYCQQYKSYPVTFGQGTKVEIK
4 | – | 3.63 | 2960 nM | 0.292 s⁻¹ | 98700 M⁻¹ s⁻¹ | – | – | – | MIAB151 (antibody, V domains shown, tested with human Fc) VH: EVQLLESGGGLVQPGGSLRLSCAASGFTFSDFWMHWVRQAPGKGLEWISYISGDSGYTNYADSVKGRFTISRDNSKNTLYLQMNSLRAEDTAVYYCARDRPYYYYMDVWGKGTTVTVSS VL: DIQMTQSPSSLSASVGDRVTITCRASQSISRSLNWYQQKPGKAPKLLIYAASSLQSGVPSRFSGSGSGTDFTLTISSLQPEDFATYYCQQYKSYPVTFGQGTKVEIK
5 | – | 4.73 | – | – | – | no binding (tested: 1 µM) | – | – | MIAB170 (antibody, V domains shown, tested with human Fc) VH: EVQLLESGGGLVQPGGSLRLSCAASGFTFSDFWMHWVRQAPGKGLEWISYISGDSGYTNYADSVKGRFTISRDNSKNTLYLQMNSLRAEDTAVYYCARDRPYYYWMDVWGKGTTVTVSS VL: DIQMTQSPSSLSASVGDRVTITCRASQSVSRSLAWYQQKPGKAPKLLIYAASSLQSGVPSRFSGSGSGTDFTLTISSLQPEDFATYYCQQYKSYPVTFGQGTKVEIK
6 | – | 3.81 | – | – | – | no binding (tested: 200 nM) | – | – | MIAB147 (antibody, V domains shown, tested with human Fc; also called MIAB147-001) VH: EVQLLESGGGLVQPGGSLRLSCAASGFTFSDFWMHWVRQAPGKGLEWISYISGDSGYTNYADSVKGRFTISRDNSKNTLYLQMNSLRAEDTAVYYCARDRPYYYYMDVWGKGTTVTVSS VL: DIQMTQSPSSLSASVGDRVTITCRASQSVSRYLAWYQQKPGKAPKLLIYAASSLQSGVPSRFSGSGSGTDFTLTISSLQPEDFATYYCQQYKSYPVTFGQGTKVEIK
7 | – | 3.63 | 2690 nM | 0.314 s⁻¹ | 117000 M⁻¹ s⁻¹ | – | – | – | MIAB148 (antibody, V domains shown, tested with human Fc) VH: EVQLLESGGGLVQPGGSLRLSCAASGFTFSDFWMHWVRQAPGKGLEWISYISGDSGYTNYADSVKGRFTISRDNSKNTLYLQMNSLRAEDTAVYYCARDRPYYYYMDVWGKGTTVTVSS VL: DIQMTQSPSSLSASVGDRVTITCRASQSVSRSLNWYQQKPGKAPKLLIYAASSLQSGVPSRFSGSGSGTDFTLTISSLQPEDFATYYCQQYKSYPVTFGQGTKVEIK
8 | – | 3.53 | 68.8 nM | 0.0259 s⁻¹ | 376000 M⁻¹ s⁻¹ | – | – | – | MIAB149 (antibody, V domains shown, tested with human Fc; also called MIAB149-001) VH: EVQLLESGGGLVQPGGSLRLSCAASGFTFSDFWMHWVRQAPGKGLEWISYISGDSGYTNYADSVKGRFTISRDNSKNTLYLQMNSLRAEDTAVYYCARDRPYYYYMDVWGKGTTVTVSS VL: DIQMTQSPSSLSASVGDRVTITCRASQSISSSLAWYQQKPGKAPKLLIYAASSLQSGVPSRFSGSGSGTDFTLTISSLQPEDFATYYCQQYKSYPVTFGQGTKVEIK
9 | – | – | – | – | – | – | binds | binds | MIAB37 (antibody, V domains shown, tested with human Fc) VH: EVQLLESGGGLVQPGGSLRLSCAASGFTFDDYAMHWVRQAPGKGLEWVASITSSSAFIDYADSVKGRFTISRDNSKNTLYLQMNSLRAEDTAVYYCAQERVDWNSYFDLWGQGTLVTVSS VL: EIVMTQSPATLSVSPGERATLSCRASQGISNSYLAWYQQKPGQAPRLLIYGASTRATGIPARFSGSGSGTEFTLTISSLQSEDFAVYYCQQYYTYPPTFGQGTKVEIK
